We go through 6 molecules from patent US20260022171A1 (23ANDME, published 2026).

Numbering of substitutions follows the chain as printed.

To fix the notation:
T1: hu-CD200R1-iso4-Ref ECD (human)
T1 chain: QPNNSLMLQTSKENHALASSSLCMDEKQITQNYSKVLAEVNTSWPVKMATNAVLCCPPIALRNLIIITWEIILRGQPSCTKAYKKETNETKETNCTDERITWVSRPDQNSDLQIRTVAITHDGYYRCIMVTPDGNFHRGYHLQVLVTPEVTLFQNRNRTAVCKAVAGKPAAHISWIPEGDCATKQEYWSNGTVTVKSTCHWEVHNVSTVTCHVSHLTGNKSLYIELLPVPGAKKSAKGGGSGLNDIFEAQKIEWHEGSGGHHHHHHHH

T2: hu-CD200R1-iso4-Alt ECD (human)
T2 construct: also called isoform 4 alt
T2 chain: T1 chain with K84R, T116P, H172Q

T3: hu-CD200R1-iso1-Ref ECD (human)
T3 chain: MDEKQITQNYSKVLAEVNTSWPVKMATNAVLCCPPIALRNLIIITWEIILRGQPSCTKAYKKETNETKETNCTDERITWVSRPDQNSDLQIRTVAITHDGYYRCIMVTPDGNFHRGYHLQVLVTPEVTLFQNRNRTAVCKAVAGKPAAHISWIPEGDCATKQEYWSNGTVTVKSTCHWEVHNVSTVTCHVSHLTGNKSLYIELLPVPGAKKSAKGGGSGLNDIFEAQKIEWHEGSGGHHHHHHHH

T4: hu-CD200R1-iso1-Alt ECD (human)
T4 chain: T3 chain with K61R, T93P, H149Q

B1: cyno-CD200R1 ECD (receptor)
chain: AAQSNNSLMLQTSKENHTLASNSLCMDEKQITQNHSKVLAEVNISWPVQMARNAVLCCPPIEFRNLIVITWEIILRGQPSCTKTYRKDTNETKETNCTDERITWVSTPDQNSDLQIHPVAITHDGYYRCIMATPDGNFHRGYHLQVLVTPEVTLFESRNRTAVCKAVAGKPAAQISWIPAGDCAPTEQEYWGNGTVTVKSTCHWEGHNVSTVTCHVSHLTGNKSLYIELLPVPGAKKSAKLGGGSGLNDIFEAQKIEWHEGSGGHHHHHHHH
notes: also called cynomolgus monkey CD200R1; MfCD200R1 (recombinant)
B2: h10F6.V1 (antibody, IgG1, V domains shown)
VH: EVQLQESGPGLVKPSETLSLTCTVSGFSLTNYRVSWVRQPPGKGLEWLGVMYAGGGTNYNSVFKSRLTISKDNSKNQVSLKLSSVTAADTAVYYCARERPLTGVMDNWGQGTLVTVSS
VL: DIVLTQSPDSLAVSLGERATINCRASESVDYSGNSFMHWFQQKPGQPPKLLIYRASNLESGIPDRFSGSGSRTDFTLTISSLQAEDVAVYYCHQSNWDPPTFGGGTKVEIKR
notes: differs by 3 residues in the heavy chain CDRs and 1 in the light chain CDRs; also called surrogate antibody
B3: h10F6.V3 (antibody, IgG1, V domains shown)
VH: B2 VH
VL: B2 VL with W97E
notes: IgG1 variant of h10F6
B4: h10F6.V2 (antibody, IgG1, V domains shown)
VH: B2 VH with R33W, V50T, Y52W, V104P, N107Y
VL: B2 VL with W97E
notes: IgG1 variant of h10F6
B5: h10F6.V4 (antibody, IgG1, V domains shown)
VH: B2 VH with R33W, V50T, Y52W, V104P, N107Y
VL: B2 VL
notes: IgG1 variant of h10F6
B6: h22.1 (humanized 22.1 IgG) (antibody, V domains shown)
VH: EVQLVQSGAEVKKPGASVKVSCKASGYTFTSYVMFWVRQAPGQRLEWIGYINPYNDDTKYNEKFKGRATLTSDKSASTAYMELSSLRSEDTAVYYCAREDYYGSRFVYWGQGTLVTVSS
VL: DIQLTQSPSSLSASVGDRVTITCRASKSVSTSGYSYMHWYQQKPGKPPKLLIYLASNLESGVPSRFSGSGSGTDFTLTISSLQPEDFATYYCQHNRELLTFGGGTKVEIKR

One experiment has as its target T5, cyno-CD200-Fc (cynomolgus monkey).
T5 construct: also called MfCD200-Fc; Fc-tagged MfCD200
Description: ELISA: biotinylated MfCD200R1 (0.12 ug/ml) on plate-immobilised Fc-tagged MfCD200, HRP-streptavidin, OD450. A general note: ELISA stands for enzyme-linked immunosorbent assay.

Experiment [1] deals with T1, hu-CD200R1-iso4-Ref ECD. Put plainly: blocking ELISA; biotin-hu-CD200R1 + antibody dilutions on coated hu-CD200-Fc.
Description: (§1) After removing the coating solution, unspecific binding was blocked with PBS containing 1% bovine serum albumin (BSA) and incubation at room temperature for one hour. Plates were then washed five times in PBS with 0.05% TWEEN®-20 (wash buffer).
For experiment [2], the target named is B1. Description: blocking ELISA, MfCD200R1 to immobilized MfCD200.
Description: Binding was evaluated by incubating with HRP-streptavidin and colorimetric substrate, followed by monitoring the OD450 in each well.
The target in experiment [3] is B1. Description: Biacore, binding to MfCD200R1.
Experiment [4] deals with B1. Put plainly: blocking ELISA; biotin-cyno-CD200R1 + antibody dilutions on coated cyno-CD200-Fc.
Experiment [5] concerns the target B1. Description: SPR binding affinity to recombinant MfCD200R1.
Experiment [6] has as its target T1, hu-CD200R1-iso4-Ref ECD. Description: SPR Biacore 8K 37C; antibody on Protein A chip, CD200R1 analyte. (In general: SPR reads the build-up and loss of mass on a sensor chip optically.)
Description: (§2) The sensorgram was recorded and subject to reference and buffer subtraction before evaluation by BIACORE®8K Evaluation Software (version 1.1.1.7442). Association rates (kₒ₀) and dissociation rates (koff) were calculated using a simple one-to-one Langmuir binding model.
Experiment [7] has as its target T2, hu-CD200R1-iso4-Alt ECD. Described as above.
Description: as §2
Experiment [8] concerns the target B1. The description is as above.
Description: as §2
In experiment [9] the target is T3, hu-CD200R1-iso1-Ref ECD. Put plainly: blocking ELISA; biotin-CD200R1 + antibody dilutions on coated hu-CD200-Fc.
Description: as §1
Experiment [10] addresses T1, hu-CD200R1-iso4-Ref ECD. The experiment is described as above.
Description: as §1
Experiment [11] deals with T2, hu-CD200R1-iso4-Alt ECD. The experiment is described as above.
Description: as §1
The target of experiment [12] is T4, hu-CD200R1-iso1-Alt ECD. Described as above.
Description: as §1
For experiment [13], the target named is T3, hu-CD200R1-iso1-Ref ECD. Put plainly: SPR Biacore 8K 37C; biotin-CD200R1 captured, antibody analyte.
Description: (§3) For kinetics measurements, 3 nM biotinylated human CD200R1. […] The sensorgram was recorded and subject to reference and buffer subtraction before evaluating by BIACORE® 8K Evaluation Software (version 1.1.1.7442).
(§4) Association rates (kₒₙ) and dissociation rates (koff) were calculated using a simple one-to-one Langmuir binding model. The equilibrium dissociation constant (KD) was calculated as the ratio of koff/kₒₙ.
Experiment [14] has as its target T1, hu-CD200R1-iso4-Ref ECD. Described as above.
Description: as §3, §4
Experiment [15] addresses T2, hu-CD200R1-iso4-Alt ECD. The description is as above.
Description: as §3, §4
Experiment [16] addresses T4, hu-CD200R1-iso1-Alt ECD. The description is as above.
Description: as §3, §4

T5 sequence (chain, as listed by the source limits assumed): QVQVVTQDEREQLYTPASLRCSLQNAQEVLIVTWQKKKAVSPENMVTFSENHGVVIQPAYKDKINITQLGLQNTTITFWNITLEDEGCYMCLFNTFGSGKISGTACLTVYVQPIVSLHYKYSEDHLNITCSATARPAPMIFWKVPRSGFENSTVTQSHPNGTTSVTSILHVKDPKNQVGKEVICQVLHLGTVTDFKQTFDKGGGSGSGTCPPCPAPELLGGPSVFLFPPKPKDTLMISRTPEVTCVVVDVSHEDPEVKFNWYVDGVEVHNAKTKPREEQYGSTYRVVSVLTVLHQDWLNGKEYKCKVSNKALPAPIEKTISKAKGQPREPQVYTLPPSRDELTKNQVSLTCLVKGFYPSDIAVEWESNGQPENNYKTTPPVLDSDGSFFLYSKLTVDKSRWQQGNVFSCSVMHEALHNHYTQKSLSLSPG

Regarding B1, in the experiment with cyno-CD200-Fc, the binding result is “binds”.

By IC50 is commonly meant the concentration that inhibits the measured activity by half. By Kd is commonly meant the constant that tells how readily two partners part at equilibrium. For orientation: koff means the rate constant with which the complex falls apart. Higher therefore signals a short-lived complex. Usually kon stands for the second-order rate constant of association. A low value points to slow association. As to B2, the figures for the IC50 with hu-CD200R1-iso4-Ref ECD [1], with cyno-CD200R1 ECD [2] and with cyno-CD200R1 ECD [4] were 0.58 nM, 2.45 nM and 2.44 nM, respectively. Also, the Kd with cyno-CD200R1 ECD [3] is 2.63 nM; in the experiment with cyno-CD200R1 ECD [5] it was 2.63 nM; in the experiment with hu-CD200R1-iso4-Ref ECD [6] it was 0.716 nM; with hu-CD200R1-iso4-Alt ECD [7] it was 0.814 nM; with cyno-CD200R1 ECD [8], 10.5 nM. The dissociation rate constant (koff) was found to be 0.000964 s⁻¹ in the experiment with hu-CD200R1-iso4-Ref ECD [6], 0.00117 s⁻¹ with hu-CD200R1-iso4-Alt ECD [7] and 0.00457 s⁻¹ with cyno-CD200R1 ECD [8]. In addition, the values for the kon with hu-CD200R1-iso4-Ref ECD [6], in the experiment with hu-CD200R1-iso4-Alt ECD [7] and with cyno-CD200R1 ECD [8] were 1.35e+06 M⁻¹ s⁻¹, 1.44e+06 M⁻¹ s⁻¹ and 436000 M⁻¹ s⁻¹, respectively.

As to B3, the IC50 with hu-CD200R1-iso4-Ref ECD [1] is 0.56 nM; with cyno-CD200R1 ECD [4] it was 11.4 nM. Also, the values for the dissociation constant Kd in the experiment with hu-CD200R1-iso4-Ref ECD [6], in the experiment with hu-CD200R1-iso4-Alt ECD [7] and in the experiment with cyno-CD200R1 ECD [8] were 0.817 nM, 0.935 nM and 60.7 nM, respectively. Further, the koff with hu-CD200R1-iso4-Ref ECD [6] stood at 0.00153 s⁻¹; with hu-CD200R1-iso4-Alt ECD [7], 0.00191 s⁻¹; with cyno-CD200R1 ECD [8] it was 0.0195 s⁻¹. Also, the kon with hu-CD200R1-iso4-Ref ECD [6] was determined as 1.88e+06 M⁻¹ s⁻¹; in the experiment with hu-CD200R1-iso4-Alt ECD [7], 2.04e+06 M⁻¹ s⁻¹; with cyno-CD200R1 ECD [8] it was 322000 M⁻¹ s⁻¹.

For the molecule B4, the IC50 was found to be 4.79 nM in the experiment with hu-CD200R1-iso4-Ref ECD [1] and 4.25 nM with cyno-CD200R1 ECD [4]. The figures for the Kd with hu-CD200R1-iso4-Ref ECD [6], with hu-CD200R1-iso4-Alt ECD [7] and with cyno-CD200R1 ECD [8] were 6.04 nM, 6.68 nM and 16.3 nM, respectively. Besides, the koff with hu-CD200R1-iso4-Ref ECD [6] came to 0.00367 s⁻¹; in the experiment with hu-CD200R1-iso4-Alt ECD [7], 0.00425 s⁻¹; with cyno-CD200R1 ECD [8] it was 0.00351 s⁻¹. In addition, the kon with hu-CD200R1-iso4-Ref ECD [6] turned out to be 607000 M⁻¹ s⁻¹; in the experiment with hu-CD200R1-iso4-Alt ECD [7], 635000 M⁻¹ s⁻¹; with cyno-CD200R1 ECD [8] it was 216000 M⁻¹ s⁻¹.

For B5, the results for the half-maximal inhibitory concentration (IC50) with hu-CD200R1-iso4-Ref ECD [1] and in the experiment with cyno-CD200R1 ECD [4] were 10.9 nM and 2.15 nM, respectively. Besides, the Kd was 8.93 nM in the experiment with hu-CD200R1-iso4-Ref ECD [6], 9.99 nM in the experiment with hu-CD200R1-iso4-Alt ECD [7] and 5.87 nM in the experiment with cyno-CD200R1 ECD [8]. The results for the koff with hu-CD200R1-iso4-Ref ECD [6], in the experiment with hu-CD200R1-iso4-Alt ECD [7] and with cyno-CD200R1 ECD [8] were 0.00336 s⁻¹, 0.00387 s⁻¹ and 0.00113 s⁻¹, respectively. Also, the values for the kon in the experiment with hu-CD200R1-iso4-Ref ECD [6], with hu-CD200R1-iso4-Alt ECD [7] and in the experiment with cyno-CD200R1 ECD [8] were 377000 M⁻¹ s⁻¹, 388000 M⁻¹ s⁻¹ and 193000 M⁻¹ s⁻¹, respectively.

Turning to B6, the half-inhibitory concentration (IC50) with hu-CD200R1-iso1-Ref ECD [9] turned out to be 5.86 nM; in the experiment with hu-CD200R1-iso4-Ref ECD [10] it was 5.32 nM; in the experiment with hu-CD200R1-iso4-Alt ECD [11], 4.59 nM; in the experiment with hu-CD200R1-iso1-Alt ECD [12], 7.45 nM. Also, the Kd came to 0.501 nM in the experiment with hu-CD200R1-iso1-Ref ECD [13], 1.92 nM with hu-CD200R1-iso4-Ref ECD [14], 1.92 nM with hu-CD200R1-iso4-Alt ECD [15] and 0.535 nM with hu-CD200R1-iso1-Alt ECD [16]. In addition, the koff came out at 0.00151 s⁻¹ with hu-CD200R1-iso1-Ref ECD [13], 0.00115 s⁻¹ with hu-CD200R1-iso4-Ref ECD [14], 0.00116 s⁻¹ with hu-CD200R1-iso4-Alt ECD [15] and 0.00166 s⁻¹ in the experiment with hu-CD200R1-iso1-Alt ECD [16]. Also, the kon with hu-CD200R1-iso1-Ref ECD [13] was found to be 3.02e+06 M⁻¹ s⁻¹; with hu-CD200R1-iso4-Ref ECD [14], 598000 M⁻¹ s⁻¹; in the experiment with hu-CD200R1-iso4-Alt ECD [15], 604000 M⁻¹ s⁻¹; with hu-CD200R1-iso1-Alt ECD [16], 3.11e+06 M⁻¹ s⁻¹.
